In patent US20230265168A1 (BEIJING KAWIN TECHNOLOGY SHARE, published 2023):
Where a chain is given by its changes, count along the chain named.

B1: antibody 021-M34 (antibody, human IgG1, kappa, V domains shown)
VH: not shown
VL: DIQLTQSPSSLSASVGDRVTITCRASASISTYLNWYQQKPGKAPKLLIYAASSLQSGVPSRFSGSGSGTDFTLTISSLQPEDFATYYCQQSYSTPLTFGGGTKVDIKR
notes: 021 with X34 (LCDR1) Q to A
B2: antibody 093 (antibody, human IgG1, kappa, V domains shown)
VH: EVQLVQSGAEVKKPGASMKVSCKASGYTFTDYYIHWVRQAPGQGPEWMGWINPNSGGTNYAQKFQGRVTMTRDTSISTAYMELSRLRSDDTAVYYCARDLWNDDVDYYGMDVWGKGTMVTVSS
VL: B1 VL with A27Q, T31S, A50D, D70E, S76R, V104L, D105E
B3: antibody 021-M40 (antibody, human IgG1, kappa, V domains shown)
VH: not shown
VL: B1 VL with A27Q, A50S
notes: 021 with X40 (LCDR2) A to S
B4: antibody 021-M42 (antibody, human IgG1, kappa, V domains shown)
VH: not shown
VL: B1 VL with A27Q, S52A
notes: 021 with X42 (LCDR2) S to A
B5: antibody 095 (antibody, human IgG1, kappa, V domains shown)
VH: not shown
VL: B1 VL with A27Q, T31S, Y49S, E81G, F83L, D105E
B6: antibody 021-M41 (antibody, human IgG1, kappa, V domains shown)
VH: not shown
VL: B1 VL with A27Q, A51S
notes: 021 with X41 (LCDR2) A to S
B7: antibody 021-M39 (antibody, human IgG1, kappa, V domains shown)
VH: not shown
VL: B1 VL with A27Q, Y32A
notes: 021 with X39 (LCDR1) Y to A
B8: antibody 021-M35 (antibody, human IgG1, kappa, V domains shown)
VH: not shown
VL: B1 VL with A27Q, S28A
notes: 021 with X35 (LCDR1) S to A
B9: antibody 021-M36 (antibody, human IgG1, kappa, V domains shown)
VH: not shown
VL: B1 VL with A27Q, I29A
notes: 021 with X36 (LCDR1) I to A
B10: antibody 090 (antibody, human IgG1, kappa, V domains shown)
VH: B2 VH
VL: EIVLTQSPGTLSLSPGERATLSCRASQSVSSYLAWYQQKPGQAPRLLIYGASSRATGIPARFSGSGSGTEFTLTISSLQSEDFATYYCQQSYSTPLTFGPGTKVEIKR
B11: antibody 091 (antibody, human IgG1, kappa, V domains shown)
VH: B2 VH
VL: B10 VL with G9A, G50D, S53N, E70D, Q79E, S80P, P100G, E105D
B12: antibody 083 (antibody, human IgG1, kappa, V domains shown)
VH: EVQLVQSGAEVKKPGASVKVSCKASGYTFTYYYMHWVRQAPGQGLEWMGWINPNSGGTNYAQKFQGRVTITADKSTSTAYMELSSLRSEDTAVYYCARDVWQQGGYYYYMDVWGKGTLVTVSS
VL: not shown
B13: antibody 096 (antibody, human IgG1, kappa, V domains shown)
VH: not shown
VL: ETTLTQSPSTLSASVGDRVTITCRASQSISSYLNWYQQKPGKAPQLLIYTASSLQSGVPSRFSGSGSGTDFTLTISSLQPEDFATYYCQQSYSTPLTFGQGTRLEIKR

Biological target: T1, HBsAg protein (hepatitis B virus surface antigen) (hepatitis B virus, UniProt P03140 175-400)
T1 construct: Coated on the ELISA plate at 20 ug/ml; also called HBsAg antigen
T1 sequence (P03140 175-400, tags left off): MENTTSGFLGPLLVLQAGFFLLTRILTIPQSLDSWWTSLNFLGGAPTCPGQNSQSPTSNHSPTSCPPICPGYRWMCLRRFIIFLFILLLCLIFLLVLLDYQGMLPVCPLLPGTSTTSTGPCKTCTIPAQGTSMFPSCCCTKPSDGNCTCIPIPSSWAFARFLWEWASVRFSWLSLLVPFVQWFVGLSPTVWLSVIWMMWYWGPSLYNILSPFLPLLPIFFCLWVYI
Experiment: ELISA on coated HBsAg; grade from OD450 ratio to 021 at 4 ug/ml
Description: The plate was washed 3 times with a washing solution PBST (PBS with 0.5%0 Tween), adding 100 μl/well secondary antibody (1:10000 dilution, Jackson ImmunoResearch) to the ELISA plate, and incubated at 37° C. for 1 hour. Finally, the plate was washed 5 times with a washing solution PBST (PBS with 0.5%0 Tween), adding 100 μl/well TMB chromogenic solution, placing it in the dark to react for 20-40 minute at room temperature, adding equal volume of stop solution to stop the chromogenic reaction, and uing Microplate Reader to measure the absorbance (OD value) at wavelength of 450 nm.

| Binder | ratio of OD450 at 4 ug/ml to OD450 of antibody 021 at 4 ug/ml [ratio] |
| --- | --- |
| B1 | 0.8 to 1.1 |
| B2 | > 1.1 |
| B3 | > 1.1 |
| B4 | 0.6 to 0.8 |
| B5 | > 1.1 |
| B6 | 0.8 to 1.1 |
| B7 | 0.4 to 0.6 |
| B8 | 0.8 to 1.1 |
| B9 | 0.4 to 0.6 |
| B10 | 0.8 to 1.1 |
| B11 | 0.8 to 1.1 |
| B12 | > 1.1 |
| B13 | > 1.1 |
